B1: TAT-STEP peptide: constitutively active STEP-derived peptide fused to HIV-1 TAT protein transduction domain, myc-tagged; exact mutation set not stated here (protein)
chain: MALYGRKKRRQRRRGEEKVEDDFLDLDAVPETPVFDCVMDIKPETDPASLTVKSMGLQERRGANVSLTLDMCEPGCNEEGFGYLVEPREESAHEYLLSASRVLRAEELHEKALDPFLLQAE
modifications: Mouse
B2: TAT-STEP peptide of SEQ ID. No. 11: cell-permeable TAT-STEP peptide given intravenously in MCAO; figure legends call the treatment TAT-STEP-myc (protein)
chain: B1 chain
modifications: myc tag; Mouse

How the values were obtained:
cultured neurons [1] = test: cell culture model of glutamate toxicity (Hoechst DNA staining); type: cell-based; details: transduction prior to or immediately after glutamate (100 μM, 30 min); staining 24 hr later
From the text: Using a cell culture model of glutamate toxicity we first investigated the functional significance of STEP's activation following excitotoxic NMDA receptor stimulation. […] As described in Poddar et al., 2010, using a substrate-trapping mutant we established that p38 MAPK is a substrate of STEP and the KIM domain of STEP is involved in STEP-p38 interaction. NR2B-NMDAR mediated activation of STEP promotes cell survival by down-regulating p38 MAPK signaling pathway. However sustained NMDAR stimulation results in degradation of active STEP leading to secondary activation of p38 MAPK that triggers cell death pathways. Based on these findings we generated a constitutively active form of a STEP peptide that can bind irreversibly to p38 MAPK. It was rendered cell permeable by fusion to the protein transduction domain of the human immunodeficiency virus-type I, TAT.

striatum = test: animal model of glutamate toxicity, stereotactic injection into the striatum; type: in vivo; details: injected stereotactically into the striatum prior to glutamate
cultured neurons [2] = test: oxygen-glucose deprivation (OGD), in vitro model of cerebral ischemia; type: cell-based; details: pre-incubation with peptide; OGD 2 hr; viability tested 24 hr later
Description: In subsequent experiments we used oxygen-glucose deprivation (OGD) as an in vitro model of cerebral ischemia to evaluate the role of TAT-STEP peptide in neuroprotection following an ischemic insult. Cultured neurons were submerged in glucose free buffer in a hypoxic chamber (oxygen-glucose deprivation or OGD) for 2 hr in the presence or absence of the peptide and cell viability was tested by Hoechsy DNA staining 24 hr later.

male Wistar rats = test: middle cerebral artery occlusion (MCAO) acute ischemic stroke model; type: in vivo, rat; details: intravenous, reperfusion 24 hr, vs saline, p<0.01
Description: FIG. 13 is a quantitative analysis of the infarct volume. Infarct volumes are expressed as a percentage of the contralateral (control) hemisphere and the data are mean +/− SEM (p<0.01).
FIG. 15 is a quantitative analysis of the infarct volume. Infarct volumes are expressed as a percentage of the contralateral (control) hemisphere and the data are mean +/− SEM (p<0.01).
Using an animal model of cerebral ischemia (middle cerebral artery occlusion for 90 min to generate embolic stroke followed by reperfusion for 24 hr), we evaluated whether degradation of active STEP contributes to neuronal cell death and subsequent brain damage and if the modified STEP peptide can mitigate ischemic brain damage. At first we examined the temporal profile of STEP's activation and subsequent degradation following cerebral ischemia and reperfusion and also evaluated its correlation with p38 MAPK activation. The findings show a rapid but transient increase in phosphorylation of p38 MAPK within 15 min of ischemic insult. This was followed by a time-dependent decrease in p38 phosphorylation from 30 min, which returned to basal levels by 90 min. […] As a consequence, active STEP limits the duration of activation of p38 MAPK. Progressive down regulation of active STEP through degradation is evident from ˜6 hours after reperfusion resulting in secondary activation of p38 MAPK. […]

Molecule | neuronal cell death as assessed by Hoechst DNA staining (cultured neurons [1]) | glutamate-induced excitotoxic cell death in vivo (striatum) | OGD-induced cell death (Hoechst DNA staining) (cultured neurons [2]) | protection against ischemic brain injury (infarct volume, TTC staining) (male Wistar rats; 1.5 hr after onset of stroke (MCAO 90 min)) | protection against ischemic brain injury (infarct volume, TTC staining) (male Wistar rats; immediately before MCAO 90 min)
B1 | blocked neuronal cell death | could attenuate glutamate-induced excitotoxic cell death in vivo | significant reduction in OGD-induced cell death | – | –
B2 | – | – | – | significant protection against ischemic brain injury | significant protection against ischemic brain injury
